The supplement of paper PMC7877785
± gives the uncertainty stated by the source.

Experiment: self-splicing fitness, log relative to wild type (ln ratio); higher = more splicing; Tetrahymena group I intron in knt gene, E. coli kanamycin selection, DiMSum; sequences stand for … in CUCUCU…GGAGGGAAAAGUUAUCAGGCAUGCACCUGGUAGCUAGUCUUUAAACCAAUAGAUUGCAUCGGUUUAAAAGGCAAGACCGUCAAAUUGCGGGAAAGGGGUCAACAGCCGUUCAGUACCAAGUCUCAGGGGAAACUUUGAGAUGGCCUUGCAAAGGGUAUGGUAAUAAGCUGACGGACAUGGUCCUAACCACGCAGCCAAGUCCUAAGUCAACAGAUCUUCUGUUGAUAUGGAUGCAGUUCACAGACUAAAUGUCGGUCGGGGAAGAUGUAUUCUUCUCAUAAGAUAUAGUCGGACCUCUCCUUAAUGGGAGCUAGCGGAUGAAGUGAUGCAACACUGGAGCCGCUGGGAACUAAUUUGUAUGCGAAAGUAUAUUGAUUAGUUUUGGAGUACUCGUGGUCG
Summary of the method: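 Pooled colonies went to amplicon sequencing on an Illumina HiSeq 2500 after six replicate transformations. The plates were LB agar with 100 μg/mL carbenicillin, 50 μM IPTG and 0.2% rhamnose, with or without 25 μg/mL kanamycin, incubated overnight at 37°C or 30°C. The E. coli BL21(DE3) library had all eight P1ex-region intron nucleotides randomised, the intron placed in the knt kanamycin-resistance gene on pET-22b(+). DiMSum fitness is the error-weighted combination of replicate fold changes, kanamycin against none, normalised to wild type.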

Row | Sequence | self-splicing fitness (ln) (30 °C) | self-splicing fitness (ln) (37 °C)
1 | GAGGAGCAAUAUUACGUUGA | -3.73 ± 0.42 | -2.24 ± 0.33
2 | GAGUAGCAAUAUUACGAAAG |  | -1.2 ± 0.3
3 | GAGUAGCAAUAUUACGACCU | 0.288 ± 0.14 | -1.02 ± 0.16
4 | GAGUAGCAAUAUUACGAGAC | -3.25 ± 0.43 | -2.95 ± 0.48
5 | GAGUAGCAAUAUUACGAGCG | -2.04 ± 0.075 | -0.489 ± 0.077
6 | GAGUAGCAAUAUUACGAGUU | -2.27 ± 0.095 | -0.98 ± 0.1
7 | GAGUAGCAAUAUUACGAUUG | -2.87 ± 0.25 | -2.14 ± 0.19
8 | GAGUAGCAAUAUUACGAUUU | -0.387 ± 0.086 | -0.312 ± 0.1
9 | GAGUAGCAAUAUUACGCAAA | -2.45 ± 0.44 | -1.63 ± 0.22
10 | GAGUAGCAAUAUUACGCCAA | -1.98 ± 0.43 | -1.66 ± 0.32
11 | GAGUAGCAAUAUUACGCGUA | -2.66 ± 0.33 | -0.648 ± 0.29
12 | GAGUAGCAAUAUUACGCUAA | -1.92 ± 0.15 | -1.97 ± 0.2
13 | GAGUAGCAAUAUUACGCUGG | -2.77 ± 0.29 | -1.48 ± 0.25
14 | GAGUAGCAAUAUUACGGGUA | -2.78 ± 0.35 | -2.54 ± 0.26
15 | GAGUAGCAAUAUUACGUACC | -1.54 ± 0.17 | -0.923 ± 0.27
16 | GAGUAGCAAUAUUACGUACG | -2.67 ± 0.18 | 0.056 ± 0.13
17 | GAGUAGCAAUAUUACGUCAG | -2.86 ± 0.17 | -2.24 ± 0.34
18 | GAGUAGCAAUAUUACGUUCA | -0.849 ± 0.075 | -0.31 ± 0.095
19 | GAGUAGCAAUAUUACGUUGA | -2.27 ± 0.27 | -2.76 ± 0.36
20 | GAUAAGCAAUAUUACGAAAU | -1.13 ± 0.13 | -1.11 ± 0.15
21 | GAUAAGCAAUAUUACGAACC | -0.954 ± 0.1 | -0.647 ± 0.13
22 | GAUAAGCAAUAUUACGAACU | -0.896 ± 0.079 | -0.073 ± 0.11
23 | GAUAAGCAAUAUUACGAAGG | -2.27 ± 0.15 | -1.86 ± 0.2
24 | GAUAAGCAAUAUUACGAAUU | -3.63 ± 0.26 | -2.76 ± 0.25

Row | Sequence | self-splicing fitness (ln) (30 °C) | self-splicing fitness (ln) (37 °C)
25 | GAUAAGCAAUAUUACGACUC | 0.0338 ± 0.1 | 0.785 ± 0.13
26 | GAUAAGCAAUAUUACGAGAU | -3.66 ± 0.21 | -2.14 ± 0.21
27 | GAUAAGCAAUAUUACGAGCU | -0.688 ± 0.11 | -1.13 ± 0.12
28 | GAUAAGCAAUAUUACGAGGA | -2.86 ± 0.29 | -2.12 ± 0.27
29 | GAUAAGCAAUAUUACGAUUG | -2.59 ± 0.11 | -1.82 ± 0.18
30 | GAUAAGCAAUAUUACGCAGG | -1.69 ± 0.13 | -2.95 ± 0.21
31 | GAUAAGCAAUAUUACGCAUC | -3.06 ± 0.23 | -1.21 ± 0.35
32 | GAUAAGCAAUAUUACGCCCA | -0.168 ± 0.13 | -0.865 ± 0.14
33 | GAUAAGCAAUAUUACGCGGG | -2.89 ± 0.11 | -2.34 ± 0.12
34 | GAUAAGCAAUAUUACGCGGU | -3.19 ± 0.25 | -1.01 ± 0.19
35 | GAUAAGCAAUAUUACGCUAG | -2.45 ± 0.15 | 0.0994 ± 0.13
36 | GAUAAGCAAUAUUACGCUUA | -3.59 ± 0.31 | -2.91 ± 0.23
37 | GAUAAGCAAUAUUACGGAAC | -3.85 ± 0.42 | -1.6 ± 0.18
38 | GAUAAGCAAUAUUACGGAAG | -3.56 ± 0.35 | -1.95 ± 0.23
39 | GAUAAGCAAUAUUACGGACC | -1.24 ± 0.25 | -1.4 ± 0.28
40 | GAUAAGCAAUAUUACGGACG | -1.08 ± 0.13 | -0.201 ± 0.14
41 | GAUAAGCAAUAUUACGGAUC | -1.37 ± 0.18 | -0.674 ± 0.25
42 | GAUAAGCAAUAUUACGGCGU | 0.319 ± 0.077 | 0.486 ± 0.1
43 | GAUAAGCAAUAUUACGGGCU | -1.95 ± 0.11 | -1.91 ± 0.16
44 | GAUAAGCAAUAUUACGGUCC |  | -3.48 ± 0.46
45 | GAUAAGCAAUAUUACGUAAA | -2.24 ± 0.17 | -1.19 ± 0.17
46 | GAUAAGCAAUAUUACGUCAU | -2.38 ± 0.086 | -1.62 ± 0.095
47 | GAUAAGCAAUAUUACGUCGG | -3.81 ± 0.35 | -3.35 ± 0.28
48 | GAUAAGCAAUAUUACGUGAU | -2.21 ± 0.12 | -0.957 ± 0.12
